Source: patent publication US20190241886A1

Biological target: CD137 (soluble antigen for staining of yeast) (human) (UniProt Q07011)
Assay: flow cytometry of yeast displaying the scFv, stained with human CD137; number printed over the dot plot, y axis CD137 binding (FL2-A PE-A), x axis scFv display

Chain of CD137 (soluble antigen for staining of yeast) (human) (Q07011 24-186 limits assumed): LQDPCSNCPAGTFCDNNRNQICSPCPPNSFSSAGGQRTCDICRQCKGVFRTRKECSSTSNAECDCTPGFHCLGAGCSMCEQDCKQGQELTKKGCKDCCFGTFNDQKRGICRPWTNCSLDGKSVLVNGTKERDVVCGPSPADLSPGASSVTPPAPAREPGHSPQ

B1: scFv of parental CD137 antibody TY21242 displayed on yeast (scFv, part only; not given: linker, Aga2 and tag, V domains shown, not shown: another chain or arm of the molecule; large carriers; small tags and cut ends)
VL: DIQLTQSPSSLSASVGDRVTITCRASQSIGSYLAWYQQKPGKAPKLLIYDASNLETGVPSRFSGSGSGTDFTLTISSLQPEDFATYYCQQGYYLWTFGQGTKVEIK
VH: EVQLVESGGGLVQPGGSLRLSCAASGFSLSTGGVGVGWIRQAPGKGLEWLALIDWADDKYYSPSLKSRLTISRDNSKNTLYLQLNSLRAEDTAVYYCARGGSDTVIGDWFAYWGQGTLVTVSS
Q: For B1, which Y is on record?
A: 19200
